Source: patent US20110020218A1

Molecular target: constitutively active mutant (CAM) Asn119Ser CXCR4 receptor (human) (UniProt P61073)
Assay: cell-based or functional assay

constitutively active mutant (CAM) Asn119Ser CXCR4 receptor (human), sequence (P61073 whole entry N119S): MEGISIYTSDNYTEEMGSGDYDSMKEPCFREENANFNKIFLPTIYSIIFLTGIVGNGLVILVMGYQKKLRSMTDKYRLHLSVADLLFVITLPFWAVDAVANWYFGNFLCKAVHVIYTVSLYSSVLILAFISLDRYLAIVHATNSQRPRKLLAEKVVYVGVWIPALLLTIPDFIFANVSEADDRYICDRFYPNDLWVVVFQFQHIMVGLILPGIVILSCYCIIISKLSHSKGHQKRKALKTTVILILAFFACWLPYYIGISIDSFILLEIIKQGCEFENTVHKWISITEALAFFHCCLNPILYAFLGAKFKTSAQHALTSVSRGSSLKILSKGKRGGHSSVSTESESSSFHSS

T140 (peptide)
inhibition of SDF-1-stimulated [35S]GTPγS binding: -159% | inhibition of basal [35S]GTPγS binding: -17%
